Reference: patent US20040167319A1 (Genmab, published 2004)
Positions count from the first letter of the chain named. *1 amine or outer side, *2 acyl side, *3 side chain or, on linkers, in order; H or OH if unused. Bridges are numbered along the chain shown (N, C = ends). Where no end group is shown, it is not given here. mXylylene = c1cc(C[*:1])cc(C[*:2])c1; minicard = not defined here

T1: PAGIYAP (also: covalently linked to polyethylene card)
T1 construct: 7-mer Pepscan peptide derived from human CD20
T1 peptide: PAGIYAP

T2: NCEPANPSEKNSPCT (linker 2-14 via 1,3‑bis(bromomethyl)‑benzene (inferred); reading uncertain)
T2 construct: 15-mer looped Pepscan peptide derived from human CD20, Cys put in at two positions
T2 peptide: Ac-NCEPANPSEKNSPCT-minicard

T3: IYAPICV (also: covalently linked to polyethylene card)
T3 construct: 7-mer Pepscan peptide derived from human CD20
T3 peptide: IYAPICV

T4: CIRAHTPYC (linker 1-9 via 1,3‑bis(bromomethyl)‑benzene (inferred); not fully specified (C-terminus); also: covalently linked to minicard)
T4 construct: 9-mer looped Pepscan peptide derived from human CD20
T4 peptide: CIRAHTPYC

T5: LKMECLNFIRCHTPY (linker 5-11 via 1,3‑bis(bromomethyl)‑benzene (inferred); reading uncertain)
T5 construct: 15-mer looped Pepscan peptide derived from human CD20, Cys put in at two positions
T5 peptide: Ac-LKMECLNFIRCHTPY-minicard

T6: IPAGIYA (also: covalently linked to polyethylene card)
T6 construct: 7-mer Pepscan peptide derived from human CD20
T6 peptide: IPAGIYA

T7: YCAEPANPSEKNSCS (linker 2-14 via 1,3‑bis(bromomethyl)‑benzene (inferred); reading uncertain)
T7 construct: 15-mer looped Pepscan peptide derived from human CD20, Cys put in at two positions
T7 peptide: Ac-YCAEPANPSEKNSCS-minicard

T8: ECANPSEKNSPSTCY (linker 2-14 via 1,3‑bis(bromomethyl)‑benzene (inferred); reading uncertain)
T8 construct: 15-mer looped Pepscan peptide derived from human CD20, Cys put in at two positions
T8 peptide: Ac-ECANPSEKNSPSTCY-minicard

T9: CRAHTPYIC (linker 1-9 via 1,3‑bis(bromomethyl)‑benzene (inferred); not fully specified (C-terminus); also: covalently linked to minicard)
T9 construct: 9-mer looped Pepscan peptide derived from human CD20
T9 peptide: CRAHTPYIC

T10: NCYNAEPANPSEKCS (linker 2-14 via 1,3‑bis(bromomethyl)‑benzene (inferred); reading uncertain)
T10 construct: 15-mer looped Pepscan peptide derived from human CD20, Cys put in at two positions
T10 peptide: Ac-NCYNAEPANPSEKCS-minicard

T11: PCINIYNAEPANPCE (linker 2-14 via 1,3‑bis(bromomethyl)‑benzene (inferred); reading uncertain)
T11 construct: 15-mer looped Pepscan peptide derived from human CD20, Cys put in at two positions
T11 peptide: Ac-PCINIYNAEPANPCE-minicard

T12: ACPANPSEKNSPSCQ (linker 2-14 via 1,3‑bis(bromomethyl)‑benzene (inferred); reading uncertain)
T12 construct: 15-mer looped Pepscan peptide derived from human CD20, Cys put in at two positions
T12 peptide: Ac-ACPANPSEKNSPSCQ-minicard

T13: GIYAPIC (also: covalently linked to polyethylene card)
T13 construct: 7-mer Pepscan peptide derived from human CD20
T13 peptide: GIYAPIC

T14: YCNIYNAEPANPSCK (linker 2-14 via mXylylene; reading uncertain)
T14 construct: 15-mer looped Pepscan peptide derived from human CD20, Cys put in at two positions
T14 peptide: Ac-YCNIYNAEPANPSCK-minicard

T15: CFIRAHTPC (linker 1-9 via 1,3‑bis(bromomethyl)‑benzene (inferred); not fully specified (C-terminus); also: covalently linked to minicard)
T15 construct: 9-mer looped Pepscan peptide derived from human CD20
T15 peptide: CFIRAHTPC

T16: MESLCFIRAHCPYIN (linker 5-11 via 1,3‑bis(bromomethyl)‑benzene (inferred); reading uncertain)
T16 construct: 15-mer looped Pepscan peptide derived from human CD20, Cys put in at two positions
T16 peptide: Ac-MESLCFIRAHCPYIN-minicard

T17: IYAPIAV (also: covalently linked to polyethylene card)
T17 construct: 7-mer Pepscan peptide derived from human CD20 (A in place of the C of IYAPICV)
T17 peptide: IYAPIAV

T18: ICIYNAEPANPSECN (linker 2-14 via 1,3‑bis(bromomethyl)‑benzene (inferred); reading uncertain)
T18 construct: 15-mer looped Pepscan peptide derived from human CD20, Cys put in at two positions
T18 peptide: Ac-ICIYNAEPANPSECN-minicard

T19: ICNAEPANPSEKNCP (linker 2-14 via 1,3‑bis(bromomethyl)‑benzene (inferred); reading uncertain)
T19 construct: 15-mer looped Pepscan peptide derived from human CD20, Cys put in at two positions
T19 peptide: Ac-ICNAEPANPSEKNCP-minicard

T20: CAHTPYINC (linker 1-9 via 1,3‑bis(bromomethyl)‑benzene (inferred); not fully specified (C-terminus); also: covalently linked to minicard)
T20 construct: 9-mer looped Pepscan peptide derived from human CD20
T20 peptide: CAHTPYINC

T21: KMECLNFIRAHCPYI (linker 4-12 via 1,3‑bis(bromomethyl)‑benzene (inferred); reading uncertain)
T21 construct: 15-mer looped Pepscan peptide derived from human CD20, Cys put in at two positions
T21 peptide: Ac-KMECLNFIRAHCPYI-minicard

T22: GIYAPIA (also: covalently linked to polyethylene card)
T22 construct: 7-mer Pepscan peptide derived from human CD20 (A in place of the C of GIYAPIC)
T22 peptide: GIYAPIA

T23: AGIYAPI (also: covalently linked to polyethylene card)
T23 construct: 7-mer Pepscan peptide derived from human CD20
T23 peptide: AGIYAPI

B1: 11B8 (antibody, IgG3, V domains shown)
VH: EVQLVQSGGGLVHPGGSLRLSCTGSGFTFSYHAMHWVRQAPGKGLEWVSIIGTGGVTYYADSVKGRFTISRDNVKNSLYLQMNSLRAEDMAVYYCARDYYGAGSFYDGLYGMDVWGQGTTVTVSS
VL: EIVLTQSPATLSLSPGERATLSCRASQSVSSYLAWYQQKPGQAPRLLIYDASNRATGIPARFSGSGSGTDFTLTISSLEPEDFAVYYCQQRSDWPLTFGGGTKVEIK
notes: Human monoclonal IgG3,κ from hybridoma
B2: 7D8 (antibody, IgG1, V domains shown)
VH: EVQLVESGGGLVQPDRSLRLSCAASGFTFHDYAMHWVRQAPGKGLEWVSTISWNSGTIGYADSVKGRFTISRDNAKNSLYLQMNSLRAEDTALYYCAKDIQYGNYYYGMDVWGQGTTVTVSS
VL: B1 VL with D93N, L96I, G100Q, K103R, V104L
notes: Human monoclonal IgG1,κ from hybridoma
B3: 2F2 (antibody, V domains shown)
VH: B2 VH with D15G, H30N, T57S, N77K
VL: B1 VL with D93N, L96I, G100Q, K103R, V104L
modifications: FITC- or 125I-labelled in some assays; F(ab')2 fragments in some; the letters do not carry this
notes: Human monoclonal IgG1,κ from hybridoma; also called 4C9; HuMab 2F2 (hybridoma-derived)

Target: T1, PAGIYAP
Assay: Pepscan ELISA, 10 µg/ml
Description: (§1) In some cases chemical linkage of the legs of a 15-mer peptide helps to identify amino acid sequences of a potentially discontinuous epitope. […] The 9- and 15-mers were synthesized as loops and screened using credit-card format mini-PEPSCAN cards (455 peptide format/card). In all looped peptides amino acids at varied positions were replaced by a cysteine (e.g., acetyl-XCXXXXXXXXCX-minicard). The peptides were synthesized using standard Fmoc-chemistry and deprotected using TFA with scavengers. Subsequently, the deprotected peptides were reacted on the microarray with an 0.5 mM solution of 1,3-bis(bromomethyl)-benzene in ammonium bicarbonate (20 mM, pH 7.9), supplemented with acetonitrile (1:1 (v/v)). The microarrays were gently shaken in the solution for 30-60 min, while completely covered in the solution. Finally, the microarrays were washed extensively with excess of Millipore H₂O and sonicated in disrupt-buffer containing 1% sodium dodecylsulfate, 0.1% β-mercaptoethanol, in PBS (pH 7.2) at 70° C. for 30 min, followed by sonication in millipore H₂O for another 45 min. Subsequently, the microwells were ready for screening in an ELISA-assay.
(§2) […] After washing, the peptides were incubated with anti-human antibody peroxidase (dilution 1:1000, 1 hour, 25° C.), and after washing the peroxidase substrate, 2,2′-azino-di-3-ethylbenzthiazolin sulfonate and 2 μl/ml 3% H₂O₂ were added. After one hour, the color development was measured. The color development of the ELISA was quantified with a CCD-camera and an image processing system.

Binder | OD (absorbance) [OD]
B1 | 449
B2 | 170
B3 | 43

Target: T2, NCEPANPSEKNSPCT
Assay: Pepscan ELISA, 10 µg/ml
Description: as §1, §2

Binder | OD (absorbance) [OD]
B1 | 159
B2 | 183
B3 | 61

Target: T3, IYAPICV
Assay: Pepscan ELISA, 10 µg/ml
Description: as §1, §2

Binder | OD (absorbance) [OD]
B1 | 137
B2 | 174
B3 | 58

Target: T4, CIRAHTPYC
Assay: Pepscan ELISA, 10 µg/ml
Description: as §1, §2

Binder | OD (absorbance) [OD]
B1 | 151
B2 | 186
B3 | 57

Target: T5, LKMECLNFIRCHTPY
Assay: Pepscan ELISA, 10 µg/ml
Description: as §1, §2

Binder | OD (absorbance) [OD]
B1 | 165
B2 | 160
B3 | 49

Target: T6, IPAGIYA
Assay: Pepscan ELISA, 10 µg/ml
Description: as §1, §2

Binder | OD (absorbance) [OD]
B1 | 217
B2 | 164
B3 | 48

Target: T7, YCAEPANPSEKNSCS
Assay: Pepscan ELISA, 10 µg/ml
Description: as §1, §2

Binder | OD (absorbance) [OD]
B1 | 106
B2 | 188
B3 | 65

Target: T8, ECANPSEKNSPSTCY
Assay: Pepscan ELISA, 10 µg/ml
Description: as §1, §2

Binder | OD (absorbance) [OD]
B1 | 134
B2 | 179
B3 | 68

Target: T9, CRAHTPYIC
Assay: Pepscan ELISA, 10 µg/ml
Description: as §1, §2

Binder | OD (absorbance) [OD]
B1 | 427
B2 | 188
B3 | 48

Target: T10, NCYNAEPANPSEKCS
Assay: Pepscan ELISA, 10 µg/ml
Description: as §1, §2

Binder | OD (absorbance) [OD]
B1 | 93
B2 | 121
B3 | 49

Target: T11, PCINIYNAEPANPCE
Assay: Pepscan ELISA, 10 µg/ml
Description: as §1, §2

Binder | OD (absorbance) [OD]
B1 | 118
B2 | 163
B3 | 65

Target: T12, ACPANPSEKNSPSCQ
Assay: Pepscan ELISA, 10 µg/ml
Description: as §1, §2

Binder | OD (absorbance) [OD]
B1 | 146
B2 | 148
B3 | 77

Target: T13, GIYAPIC
Assay: Pepscan ELISA, 10 µg/ml
Description: as §1, §2

Binder | OD (absorbance) [OD]
B1 | 99
B2 | 152
B3 | 34

Target: T14, YCNIYNAEPANPSCK
Assay: Pepscan ELISA, 10 µg/ml
Description: as §1, §2

Binder | OD (absorbance) [OD]
B1 | 287
B2 | 181
B3 | 86

Target: T15, CFIRAHTPC
Assay: Pepscan ELISA, 10 µg/ml
Description: as §1, §2

Binder | OD (absorbance) [OD]
B1 | 188
B2 | 181
B3 | 91

Target: T16, MESLCFIRAHCPYIN
Assay: Pepscan ELISA, 10 µg/ml
Description: as §1, §2

Binder | OD (absorbance) [OD]
B1 | 179
B2 | 127
B3 | 41

Target: T17, IYAPIAV
Assay: Pepscan ELISA, 10 µg/ml
Description: as §1, §2

Binder | OD (absorbance) [OD]
B1 | 161
B2 | 181
B3 | 62

Target: T18, ICIYNAEPANPSECN
Assay: Pepscan ELISA, 10 µg/ml
Description: as §1, §2

Binder | OD (absorbance) [OD]
B1 | 138
B2 | 192
B3 | 78

Target: T19, ICNAEPANPSEKNCP
Assay: Pepscan ELISA, 10 µg/ml
Description: as §1, §2

Binder | OD (absorbance) [OD]
B1 | 115
B2 | 165
B3 | 43

Target: T20, CAHTPYINC
Assay: Pepscan ELISA, 10 µg/ml
Description: as §1, §2

Binder | OD (absorbance) [OD]
B1 | 179
B2 | 174
B3 | 42

Target: T21, KMECLNFIRAHCPYI
Assay: Pepscan ELISA, 10 µg/ml
Description: as §1, §2

Binder | OD (absorbance) [OD]
B1 | 763
B2 | 134
B3 | 48

Target: T22, GIYAPIA
Assay: Pepscan ELISA, 10 µg/ml
Description: as §1, §2

Binder | OD (absorbance) [OD]
B1 | 172
B2 | 177
B3 | 62

Target: T23, AGIYAPI
Assay: Pepscan ELISA, 10 µg/ml
Description: as §1, §2

Binder | OD (absorbance) [OD]
B1 | 251
B2 | 188
B3 | 44
